This note sets out measurements from paper PMC3350560.

First the molecules themselves.
B1: probe A (oligo A) (dsDNA)
DNA 1: GATTTGCGTTTTAGAGGCTATAGGCTCTTGAAACTCTCCA
DNA 2: TGGAGAGTTTCAAGAGCCTATAGCCTCTAAAACGCAAATC
B2: probe C (oligo C) (dsDNA)
DNA 1: GGCAAACAGCAGGAATTCCTAAAAAATTCGAAAAGGTTTCT
DNA 2: AGAAACCTTTTCGAATTTTTTAGGAATTCCTGCTGTTTGCC
B3: probe D (oligo D) (dsDNA)
DNA 1: CAATGATTTGCGTTTTAG
DNA 2: CTAAAACGCAAATCATTG

rCKAP4 (recombinant CKAP4 extracellular domain), sequence (Q07065 126-501): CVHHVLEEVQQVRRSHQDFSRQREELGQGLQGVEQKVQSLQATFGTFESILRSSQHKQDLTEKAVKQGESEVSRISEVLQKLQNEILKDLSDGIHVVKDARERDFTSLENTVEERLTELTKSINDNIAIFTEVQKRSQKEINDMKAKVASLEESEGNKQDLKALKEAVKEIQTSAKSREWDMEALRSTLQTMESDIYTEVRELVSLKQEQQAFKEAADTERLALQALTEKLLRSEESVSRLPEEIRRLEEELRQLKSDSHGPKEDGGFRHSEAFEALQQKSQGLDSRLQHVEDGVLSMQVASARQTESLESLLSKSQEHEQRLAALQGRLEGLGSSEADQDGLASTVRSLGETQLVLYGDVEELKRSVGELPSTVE

The data set addresses rCKAP4 (recombinant CKAP4 extracellular domain) (UniProt Q07065 126-501). The data set can be described thus: EMSA.
In the case of B1, the binding result is “binds”. Then B2, with “no binding”; and B3, with “no binding”.
